Measurements as given in patent US20200055937A1 (REMD BIOTHERAPEUTICS, published 2020).

T1: human CTLA-4 (human, UniProt P16410 36-161, limits assumed)
T1 construct: also called HuCTLA-4; human cytotoxic T lymphocyte antigen-4
T1 sequence: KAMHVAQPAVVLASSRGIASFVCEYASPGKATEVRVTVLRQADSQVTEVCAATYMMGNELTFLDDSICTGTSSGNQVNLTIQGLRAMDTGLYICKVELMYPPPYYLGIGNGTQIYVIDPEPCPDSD

T2: CTLA4-Fc (UniProt P16410 36-161, limits assumed)
T2 sequence (looked up): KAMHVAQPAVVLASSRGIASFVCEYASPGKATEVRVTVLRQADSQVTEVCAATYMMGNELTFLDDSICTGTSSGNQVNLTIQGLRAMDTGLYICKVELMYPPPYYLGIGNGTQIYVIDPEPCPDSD

T3: cyno Macaque CTLA-4 (cyno Macaque, UniProt G7PL88 36-161)
T3 construct: ELISA antigen; construct not described; also called CynoCTLA-4; cyno CTLA-4
T3 sequence: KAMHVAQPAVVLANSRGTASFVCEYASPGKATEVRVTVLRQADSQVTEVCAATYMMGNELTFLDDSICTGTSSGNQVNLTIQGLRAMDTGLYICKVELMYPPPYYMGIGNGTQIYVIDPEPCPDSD

T4: CTLA4-his (UniProt P16410 36-161, limits assumed)
T4 construct: construct not described; also called Ag CTLA4-his; Antigen CTLA4-his; not shown: his tag
T4 sequence (looked up): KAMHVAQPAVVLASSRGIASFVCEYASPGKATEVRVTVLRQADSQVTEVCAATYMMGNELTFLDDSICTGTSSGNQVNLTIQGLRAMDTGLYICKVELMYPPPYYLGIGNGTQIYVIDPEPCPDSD


Legend:
human CTLA-4 [1] = biological target: T1, human CTLA-4; assay: ratio of the IC50 for blocking CD80 to the IC50 for blocking CD86 on CTLA-4
human CTLA-4 [2] = biological target: T1, human CTLA-4; assay: ELISA, human CTLA-4 binding
human CTLA-4 [3] = biological target: T1, human CTLA-4; assay: ligand blocking assay with purified proteins; competitor CD80
CTLA4-Fc [4] = biological target: T2, CTLA4-Fc; assay: cell-based or functional assay
murine CTLA-4 = biological target: T5, murine CTLA-4 (murine, UniProt P09793 36-161, limits assumed); assay: ELISA, murine CTLA-4 binding assay
T5 construct: ELISA antigen; construct not described; also called mouse CTLA-4

human CTLA-4 [5] = biological target: T1, human CTLA-4; assay: ligand blocking assay with purified proteins; competitor CD86
cyno Macaque CTLA-4 = biological target: T3, cyno Macaque CTLA-4; assay: ELISA, cyno CTLA-4 binding
CTLA4-Fc [6] = biological target: T2, CTLA4-Fc; assay: SPR Biacore T200, CTLA4-Fc amine-coupled, antibody as analyte
Description: (§1) Antigen CTLA4-Fc was immobilized on the sensor chip through amine coupling method. Antibody was used as the analyte. The data of dissociation (kd) and association (kₐ) rate constants were obtained using Biacore T200 evaluation software. The apparent equilibrium dissociation constants (KD) were calculated from the ratio of kd over kₐ.

CTLA4-Fc [7] = biological target: T2, CTLA4-Fc; assay: SPR Biacore T200, CTLA4-Fc amine-coupled, antibody as analyte; apparent KD
Description: as §1

CTLA4-his [8] = biological target: T4, CTLA4-his; assay: SPR Biacore 8k, purified antibody captured on chip, CTLA4-his as analyte (as the text says; same values as Table 5)
CTLA4-Fc [9] = biological target: T2, CTLA4-Fc; assay: cell-based or functional assay; remark: listed apart in the source
CTLA4-his [10] = biological target: T4, CTLA4-his; assay: SPR Biacore 8k, purified antibody captured on chip, CTLA4-his as analyte
Description: The affinities of purified antibody binding to CTLA4-his was determined using a Surface Plasmon Resonance (SPR) biosensor, Biacore 8k. Antibodies were immobilized on the sensor chip through capture method. Antigen CTLA4-his was used as the analyte. The data of dissociation (kd) and association (ka) rate constants were obtained using Biacore 8k evaluation software. The equilibrium dissociation constants (KD) were calculated from the ratio of kd over ka.

CTLA4-his [11] = biological target: T4, CTLA4-his; assay: SPR Biacore T200, antibody from supernatant captured by anti-human Fc, CTLA4-his injected
Description: (§2) Affinity ranking of the fifteen humanized antibodies was determined using a Surface Plasmon Resonance (SPR) biosensor, Biacore T200 (GE Healthcare). Anti-human Fc gamma specific antibody was immobilized onto the sensor chip using amine coupling method. […] After equilibration, Ag CTLA4-his was injected for 300 seconds (association phase) followed by the injection of running buffer for 600s (dissociation phase). Responses of reference flow cell (flow cell 1) were subtracted from those of humanized antibodies flow cells during each cycle. The surface was regenerated before the injection of other humanized antibodies. The process was repeated until all antibodies are analyzed. The off-rates of humanized antibodies were obtained from fitting the experimental data locally to 1:1 interaction model using the Biacore 8K evaluation software. The antibodies were ranked by their dissociation rate constants (off-rates, kd).

CTLA4-his [12] = biological target: T4, CTLA4-his; assay: SPR Biacore T200, antibody from supernatant captured by anti-human Fc, CTLA4-his injected; supernatant antibody, off-rate ranking, 600 s dissociation
Description: as §2

Binder | CD80/CD86 Blocking Ratio (human CTLA-4 [1]) | EC50 (human CTLA-4 [2]) | IC50 (human CTLA-4 [3]) | IC50 (nM), IL-2 secreted by Jurkat cells co-cultured with CHO/CD80 cells, Experiment 1 (CTLA4-Fc [4]) | IC50 (nM), IL-2 secreted by Jurkat cells co-cultured with CHO/CD80 cells, Experiment 2 (CTLA4-Fc [4]) | binding result (murine CTLA-4) | IC50 (human CTLA-4 [5]) | EC50 (cyno Macaque CTLA-4) | IC50 (nM), Jurkat cell activation assay of Example 2 (IL-2) (CTLA4-Fc [9]) | Kd (CTLA4-his [10]) | koff (CTLA4-his [10]) | kon (CTLA4-his [10]) | Kd (CTLA4-his [11]) | koff (CTLA4-his [11]) | kon (CTLA4-his [11]) | further results
MAb A5 (32G4C12) (antibody, V domains shown, also called murine antibody A5) VH: QVQLQQSGPELVRPGASVKLSCKASGYTFTTYDINWVKQRPGQGLEWIGWIYPRDGSIIFNEKFKGKATLTVDTTSSTAYMELHSLTSEDSAVYFCARRGLLGPLDYWGQGTPLTVSS VL: DIVMTQSHKFMSTSVGDRVSITCKASQDVATTVAWYQQKPGQSPKLVIYWASTRHTGVPDRFTGSGSGTDFTLTISNVQSEDLADYFCQQYSSYPTFGVGTKLELK | 2.37 | 0.049 nM | 0.641 nM | 27.3 nM | 16.6 nM | no binding | 0.271 nM | 0.045 nM | – | – | – | – | – | – | – | –
MAb A4 (13F10D7) (antibody, V domains shown, also called Murine MAb A4; murine antibody A4) VH: EVQLRQSGPELVKPGTSVKISCKASGYKFTDHFINWVKQNHGKSLEWIGDINPNNGGTNSNQKFEGKATLTVDKSSSTAYMELRSLTSEDSAVYYCARLRREYFYAMDYWGQGTSVTVSS VL: DIVMTQAAFSNPVTLGTSASISCRSSKSLLHSNGITYLYWYLQKPGQSPQLLIYQMSNLASGVPDRFSSSGSGTDFTLRISRVEAEDVGVYYCAQNLELPLTFGAGTKLELK | 2.01 | 0.034 nM | 0.579 nM | 11 nM | 13.2 nM | no binding | 0.287 nM | 0.024 nM | – | – | – | – | – | – | – | koff (CTLA4-Fc [6]): 0.000551 s⁻¹; kon (CTLA4-Fc [6]): 573000 M⁻¹ s⁻¹; Kd (CTLA4-Fc [7]): 0.963 nM; Kd (CTLA4-his [8]): 0.963 nM; koff (CTLA4-his [8]): 0.000551 s⁻¹; kon (CTLA4-his [8]): 573000 M⁻¹ s⁻¹
MAb A2 (7G10D3) (antibody, V domains shown, also called murine antibody A2) VH: QIQLVQSGPELKKPGETVKISCKASGYTFTTYGMSWVKQTPGKGLKWMGWINTYSGVPTYADDFKGRFAFSLETSASTAYLQINNLKNEDTATYFCARGRDYYGSSYRLFGVWGTGTTVTVSS VL: DIQMTQTTSSLSASLGDRVTISCRASQDISNYLNWYQQKPDGTVKLLIYYTSILNSGVPSKFSGSGSGTDYSLTISNLEQEDIATYFCQQGNTLPWTFGGGTKLEIK | 7.91 | 0.077 nM | 12.8 nM | 26.4 nM | 22.3 nM | no binding | 1.61 nM | 0.01 nM | – | – | – | – | – | – | – | –
MAb A3 (32G12D2) (antibody, V domains shown, also called murine antibody A3) VH: QVQLQQPGAELVRPGSSVKLSCKASGYTFTSYWMHWVKQRPIQGLEWIGNIDPSDSETHYNQNFKDKATLTVDKSSSTAYLQLSSLTSEDSAVYYCARRYTSSSFDYWGQGTTLTVSS VL: DIQMTQTTSSLSASLGDRVTVSCRASQDIRNYLNWYQQKPDGTVKLLIYFTSKLHSGVPSRFSGSGSGTDYFLAISNLEQEDIATYFCQQGNTLPYTFGGGTKLEIK | 2.23 | 0.026 nM | 0.822 nM | 22.7 nM | 14.9 nM | no binding | 0.369 nM | 0.054 nM | – | – | – | – | – | – | – | –
Humanized Ab 11 (VH4 + VL2) (antibody, human IgG1, kappa, Humanized IgG1 derived from MAb A4) heavy: not shown light: DIVMTQSPLSLPVTPGEPASISCRSSKSLLHSNGITYLYWYLQKPGQSPQLLIYQMSNLASGVPDRFSSSGSGTDFTLKISRVEAEDVGVYYCAQNLELPLTFGGGTKVEIKRTVAAPSVFIFPPSDEQLKSGTASVVCLLNNFYPREAKVQWKVDNALQSGNSQESVTEQDSKDSTYSLSSTLTLSKADYEKHKVYACEVTHQGLSSPVTKSFNRGEC | – | – | – | – | – | – | – | – | 8.7 nM | 0.339 nM | 0.000307 s⁻¹ | 904000 M⁻¹ s⁻¹ | 0.684 nM | 0.000305 s⁻¹ | 446000 M⁻¹ s⁻¹ | –
Humanized Ab 15 (VH7 + VL3) (antibody, human IgG1, kappa, V domains shown, Humanized IgG1 derived from MAb A4) VH: QVQLVQSGAEVVKPGASVKISCKASGYKFTDHFINWVKQNPGQGLEWIGDINPNNGGTNSNQKFEGKATLTVDKSISTAYMELRRLRSDDTAVYYCARLRREYFYAMDYWGQGTLVTVSS VL: DIVMTQSPLSLPVTPGEPASISCRSSKSLLHSNGITYLYWYLQKPGQSPQLLIYQMSNLASGVPDRFSSSGSGTDFTLKISRVEAEDVGVYYCAQNLELPLTFGGGTKLEIKR | – | – | – | – | – | – | – | – | 3.1 nM | 0.0142 nM | 1.03e-05 s⁻¹ | 727000 M⁻¹ s⁻¹ | ≤ 0.0472 nM | – | 212000 M⁻¹ s⁻¹ | koff (CTLA4-his [12]): ≤ 1e-05 s⁻¹
Humanized Ab 12 (VH4 + VL3) (antibody, human IgG1, kappa, Humanized IgG1 derived from MAb A4, full length, HEK293) heavy: not shown light: DIVMTQSPLSLPVTPGEPASISCRSSKSLLHSNGITYLYWYLQKPGQSPQLLIYQMSNLASGVPDRFSSSGSGTDFTLKISRVEAEDVGVYYCAQNLELPLTFGGGTKLEIKRTVAAPSVFIFPPSDEQLKSGTASVVCLLNNFYPREAKVQWKVDNALQSGNSQESVTEQDSKDSTYSLSSTLTLSKADYEKHKVYACEVTHQGLSSPVTKSFNRGEC | – | – | – | – | – | – | – | – | – | – | – | – | 0.435 nM | 0.000397 s⁻¹ | 913000 M⁻¹ s⁻¹ | –
Humanized Ab 13 (VH5 + VL3) (antibody, human IgG1, kappa, V domains shown, Humanized IgG1 derived from MAb A4, full length, HEK293) VH: QVQLVQSGAEVVKPGASVKISCKASGYKFTDHFINWVKQNPGQGLEWIGDINPNNGGTNSNQKFEGRATLTVDTSISTAYMELSRLRSDDTAVYYCARLRREYFYAMDYWGQGTLVTVSS VL: DIVMTQSPLSLPVTPGEPASISCRSSKSLLHSNGITYLYWYLQKPGQSPQLLIYQMSNLASGVPDRFSSSGSGTDFTLKISRVEAEDVGVYYCAQNLELPLTFGGGTKLEIKR | – | – | – | – | – | – | – | – | – | – | – | – | 0.542 nM | 0.00016 s⁻¹ | 295000 M⁻¹ s⁻¹ | –
Humanized Ab 14 (VH6 + VL3) (antibody, human IgG1, kappa, V domains shown, Humanized IgG1 derived from MAb A4) VH: QVQLVQSGAEVKKPGASVKVSCKASGYKFTDHFINWVKQAPGQGLEWIGDINPNNGGTNSNQKFEGKATLTVDKSISTAYMELRRLRSDDTAVYYCARLRREYFYAMDYWGQGTLVTVSS VL: DIVMTQSPLSLPVTPGEPASISCRSSKSLLHSNGITYLYWYLQKPGQSPQLLIYQMSNLASGVPDRFSSSGSGTDFTLKISRVEAEDVGVYYCAQNLELPLTFGGGTKLEIKR | – | – | – | – | – | – | – | – | 3.1 nM | 0.0248 nM | 1.99e-05 s⁻¹ | 802000 M⁻¹ s⁻¹ | ≤ 0.0452 nM | ≤ 1e-05 s⁻¹ | 221000 M⁻¹ s⁻¹ | –
